“And” between values parts separate entries of the source, which are not always exact repeats. Equal values may be shown once.
B1: Lysozyme C, P61626 (parent)
chain: MKALIVLGLVLLSVTVQGKVFERCELARTLKRLGMDGYRGISLANWMCLAKWESGYNTRATNYNAGDRSTDYGIFQINSRYWCNDGKTPGAVNACHLSCSALLQDNIADAVACAKRVVRDPQGIRAWVAWRNRCQNRDVRQYVQGCGV

Variants of: B1
Details: Homo sapiens; pH 2.51; Thermal; DSC; glycine 0.05 M; reversible: yes; structure 1LZ1; whole UniProt chain shown
In the case of MKALIVLGLVLLSVTVQGKVFERCELARTLKRLGMDGYRGISLANWMCLAKWESGYNTRATNYNAGDRSTDYGIFQSNSRYWCNDGKTPGAVNACHLSCSALLQDNIADAVACAKRVVRDPQGIRAWVAWRNRCQNRDVRQYVQGCGV [I77S], the Tm is reported as 50.2 °C, the “heat capacity change of unfolding” value is reported as 1.27 kcal/mol/K and the “unfolding enthalpy (calorimetric)” value is reported as 87 kcal/mol. For the same variant, the “unfolding enthalpy (van 't Hoff)” value was 92.7 kcal/mol.

Same assay, conditions: Homo sapiens; pH 2.7; 64.9 °C; Thermal; DSC; glycine 0.05 M; reversible: yes; structure 1LZ1; whole UniProt chain shown
With MKALIVLGLVLLSVTVQGKVFERCELARTLKRLGMDGYRGISLANWMCLAKWESGYNTRATNYNAGDRSTDYGIFQSNSRYWCNDGKTPGAVNACHLSCSALLQDNIADAVACAKRVVRDPQGIRAWVAWRNRCQNRDVRQYVQGCGV [I77S] the “ddG of mutation (higher = less stable)” value was 3.59 kcal/mol.
In the case of MKALIVLGLVLLSVTVQGKVFERCELARTLKRLGMDGYRGISLANWMCLAKWESGYNTRATNYNAGDRSTDYGMFQINSRYWCNDGKTPGAVNACHLSCSALLQDNIADAVACAKRVVRDPQGIRAWVAWRNRCQNRDVRQYVQGCGV [I74M], the “ddG of mutation (higher = less stable)” value is reported as 1.77 kcal/mol.
With MKALIVLGLVLLSVTVQGKVFERCELARTLKRLGMDGYRGISLANWMCLAKWESGYNTRATNYNAGDRSTDYGIFQFNSRYWCNDGKTPGAVNACHLSCSALLQDNIADAVACAKRVVRDPQGIRAWVAWRNRCQNRDVRQYVQGCGV [I77F] the “ddG of mutation (higher = less stable)” value was 0.81 kcal/mol.

Same assay, conditions: Homo sapiens; pH 2.7; Thermal; DSC; glycine 0.05 M; reversible: yes; structure 1LZ1; whole UniProt chain shown
With MKALIVLGLVLLSVTVQGKVFERCELARTLKRLGMDGYRGISLANWMCLAKWESGYNTRATNYNAGDRSTDYGIFQSNSRYWCNDGKTPGAVNACHLSCSALLQDNIADAVACAKRVVRDPQGIRAWVAWRNRCQNRDVRQYVQGCGV [I77S] the “change of melting temperature, mutant - wild type (higher = more stable)” value was -11.8 °C, the “heat capacity change of unfolding” value was 1.2 kcal/mol/K and 1.34 kcal/mol/K and the “unfolding enthalpy (calorimetric)” value was 90.8 kcal/mol and 107 kcal/mol. For the same variant, the “unfolding enthalpy (van 't Hoff)” value was 96.8 kcal/mol and 114 kcal/mol.
With MKALIVLGLVLLSVTVQGKVFERCELARTLKRLGMDGYRGISLANWMCLAKWESGYNTRATNYNAGDRSTDYGMFQINSRYWCNDGKTPGAVNACHLSCSALLQDNIADAVACAKRVVRDPQGIRAWVAWRNRCQNRDVRQYVQGCGV [I74M] the “change of melting temperature, mutant - wild type (higher = more stable)” value was -5.8 °C, the “heat capacity change of unfolding” value was 1.63 kcal/mol/K and 1.53 kcal/mol/K and the “unfolding enthalpy (calorimetric)” value was 97.3 kcal/mol and 106 kcal/mol. For the same variant, the “unfolding enthalpy (van 't Hoff)” value was 107 kcal/mol and 115 kcal/mol.
Variant MKALIVLGLVLLSVTVQGKVFERCELARTLKRLGMDGYRGISLANWMCLAKWESGYNTRATNYNAGDRSTDYGIFQFNSRYWCNDGKTPGAVNACHLSCSALLQDNIADAVACAKRVVRDPQGIRAWVAWRNRCQNRDVRQYVQGCGV [I77F] has a Tm of 64.9 °C.

Same assay, conditions: Homo sapiens; pH 2.84; Thermal; DSC; glycine 0.05 M; reversible: yes; structure 1LZ1; whole UniProt chain shown
With MKALIVLGLVLLSVTVQGKVFERCELARTLKRLGMDGYRGISLANWMCLAKWESGYNTRATNYNAGDRSTDYGIFQSNSRYWCNDGKTPGAVNACHLSCSALLQDNIADAVACAKRVVRDPQGIRAWVAWRNRCQNRDVRQYVQGCGV [I77S] the Tm was 55.3 °C, the “heat capacity change of unfolding” value was 1.55 kcal/mol/K and the “unfolding enthalpy (calorimetric)” value was 94.7 kcal/mol. For the same variant, the “unfolding enthalpy (van 't Hoff)” value was 99.9 kcal/mol.

Same assay, conditions: Homo sapiens; pH 3.04; Thermal; DSC; glycine 0.05 M; reversible: yes; structure 1LZ1; whole UniProt chain shown
With MKALIVLGLVLLSVTVQGKVFERCELARTLKRLGMDGYRGISLANWMCLAKWESGYNTRATNYNAGDRSTDYGIFQSNSRYWCNDGKTPGAVNACHLSCSALLQDNIADAVACAKRVVRDPQGIRAWVAWRNRCQNRDVRQYVQGCGV [I77S] the Tm was 58.2 °C, the “heat capacity change of unfolding” value was 1.48 kcal/mol/K and the “unfolding enthalpy (calorimetric)” value was 98.2 kcal/mol. The “unfolding enthalpy (van 't Hoff)” value was 104 kcal/mol.

Same assay, conditions: Homo sapiens; pH 3.17; Thermal; DSC; glycine 0.05 M; reversible: yes; structure 1LZ1; whole UniProt chain shown
In the case of MKALIVLGLVLLSVTVQGKVFERCELARTLKRLGMDGYRGISLANWMCLAKWESGYNTRATNYNAGDRSTDYGIFQSNSRYWCNDGKTPGAVNACHLSCSALLQDNIADAVACAKRVVRDPQGIRAWVAWRNRCQNRDVRQYVQGCGV [I77S], the Tm is reported as 60 °C, the “heat capacity change of unfolding” value is reported as 1.24 kcal/mol/K and the “unfolding enthalpy (calorimetric)” value is reported as 99.9 kcal/mol. For the same variant, the “unfolding enthalpy (van 't Hoff)” value was 106 kcal/mol.

Same assay, conditions: Homo sapiens; pH 2.54; Thermal; DSC; glycine 0.05 M; reversible: yes; structure 1LZ1; whole UniProt chain shown
For MKALIVLGLVLLSVTVQGKVFERCELARTLKRLGMDGYRGISLANWMCLAKWESGYNTRATNYNAGDRSTDYGMFQINSRYWCNDGKTPGAVNACHLSCSALLQDNIADAVACAKRVVRDPQGIRAWVAWRNRCQNRDVRQYVQGCGV [I74M], the Tm was 56.3 °C, the “heat capacity change of unfolding” value was 1.39 kcal/mol/K and the “unfolding enthalpy (calorimetric)” value was 92.5 kcal/mol. For the same variant, the “unfolding enthalpy (van 't Hoff)” value was 103 kcal/mol.
With MKALIVLGLVLLSVTVQGKVFERCELARTLKRLGMDGYRGISLANWMCLAKWESGYNTRATNYNAGDRSTDYGIFQFNSRYWCNDGKTPGAVNACHLSCSALLQDNIADAVACAKRVVRDPQGIRAWVAWRNRCQNRDVRQYVQGCGV [I77F] the Tm was 59.8 °C, the “heat capacity change of unfolding” value was 1.41 kcal/mol/K and the “unfolding enthalpy (calorimetric)” value was 99.9 kcal/mol. The “unfolding enthalpy (van 't Hoff)” value was 108 kcal/mol.

Same assay, conditions: Homo sapiens; pH 2.83; Thermal; DSC; glycine 0.05 M; reversible: yes; structure 1LZ1; whole UniProt chain shown
In the case of MKALIVLGLVLLSVTVQGKVFERCELARTLKRLGMDGYRGISLANWMCLAKWESGYNTRATNYNAGDRSTDYGMFQINSRYWCNDGKTPGAVNACHLSCSALLQDNIADAVACAKRVVRDPQGIRAWVAWRNRCQNRDVRQYVQGCGV [I74M], the Tm is reported as 61.3 °C, the “heat capacity change of unfolding” value is reported as 1.72 kcal/mol/K and the “unfolding enthalpy (calorimetric)” value is reported as 101 kcal/mol. For the same variant, the “unfolding enthalpy (van 't Hoff)” value was 110 kcal/mol.

Same assay, conditions: Homo sapiens; pH 3.02; Thermal; DSC; glycine 0.05 M; reversible: yes; structure 1LZ1; whole UniProt chain shown
In the case of MKALIVLGLVLLSVTVQGKVFERCELARTLKRLGMDGYRGISLANWMCLAKWESGYNTRATNYNAGDRSTDYGMFQINSRYWCNDGKTPGAVNACHLSCSALLQDNIADAVACAKRVVRDPQGIRAWVAWRNRCQNRDVRQYVQGCGV [I74M], the Tm is reported as 64.2 °C, the “heat capacity change of unfolding” value is reported as 1.43 kcal/mol/K and the “unfolding enthalpy (calorimetric)” value is reported as 105 kcal/mol. For the same variant, the “unfolding enthalpy (van 't Hoff)” value was 113 kcal/mol.

Same assay, conditions: Homo sapiens; pH 3.11; Thermal; DSC; glycine 0.05 M; reversible: yes; structure 1LZ1; whole UniProt chain shown
With MKALIVLGLVLLSVTVQGKVFERCELARTLKRLGMDGYRGISLANWMCLAKWESGYNTRATNYNAGDRSTDYGMFQINSRYWCNDGKTPGAVNACHLSCSALLQDNIADAVACAKRVVRDPQGIRAWVAWRNRCQNRDVRQYVQGCGV [I74M] the Tm was 65.9 °C, the “heat capacity change of unfolding” value was 1.53 kcal/mol/K and the “unfolding enthalpy (calorimetric)” value was 107 kcal/mol. The “unfolding enthalpy (van 't Hoff)” value was 116 kcal/mol.

Same assay, conditions: Homo sapiens; pH 2.73; Thermal; DSC; glycine 0.05 M; reversible: yes; structure 1LZ1; whole UniProt chain shown
For MKALIVLGLVLLSVTVQGKVFERCELARTLKRLGMDGYRGISLANWMCLAKWESGYNTRATNYNAGDRSTDYGIFQFNSRYWCNDGKTPGAVNACHLSCSALLQDNIADAVACAKRVVRDPQGIRAWVAWRNRCQNRDVRQYVQGCGV [I77F], the Tm was 62.8 °C, the “heat capacity change of unfolding” value was 1.58 kcal/mol/K and the “unfolding enthalpy (calorimetric)” value was 104 kcal/mol. The “unfolding enthalpy (van 't Hoff)” value was 112 kcal/mol.

Same assay, conditions: Homo sapiens; pH 2.9; Thermal; DSC; glycine 0.05 M; reversible: yes; structure 1LZ1; whole UniProt chain shown
For MKALIVLGLVLLSVTVQGKVFERCELARTLKRLGMDGYRGISLANWMCLAKWESGYNTRATNYNAGDRSTDYGIFQFNSRYWCNDGKTPGAVNACHLSCSALLQDNIADAVACAKRVVRDPQGIRAWVAWRNRCQNRDVRQYVQGCGV [I77F], the Tm was 65.4 °C, the “heat capacity change of unfolding” value was 1.2 kcal/mol/K and the “unfolding enthalpy (calorimetric)” value was 108 kcal/mol. The “unfolding enthalpy (van 't Hoff)” value was 116 kcal/mol.

Same assay, conditions: Homo sapiens; pH 3.05; Thermal; DSC; glycine 0.05 M; reversible: yes; structure 1LZ1; whole UniProt chain shown
In the case of MKALIVLGLVLLSVTVQGKVFERCELARTLKRLGMDGYRGISLANWMCLAKWESGYNTRATNYNAGDRSTDYGIFQFNSRYWCNDGKTPGAVNACHLSCSALLQDNIADAVACAKRVVRDPQGIRAWVAWRNRCQNRDVRQYVQGCGV [I77F], the Tm is reported as 68 °C, the “heat capacity change of unfolding” value is reported as 1.29 kcal/mol/K and the “unfolding enthalpy (calorimetric)” value is reported as 111 kcal/mol. For the same variant, the “unfolding enthalpy (van 't Hoff)” value was 120 kcal/mol.

Same assay, conditions: Homo sapiens; pH 3.15; Thermal; DSC; glycine 0.05 M; reversible: yes; structure 1LZ1; whole UniProt chain shown
For MKALIVLGLVLLSVTVQGKVFERCELARTLKRLGMDGYRGISLANWMCLAKWESGYNTRATNYNAGDRSTDYGIFQFNSRYWCNDGKTPGAVNACHLSCSALLQDNIADAVACAKRVVRDPQGIRAWVAWRNRCQNRDVRQYVQGCGV [I77F], the Tm was 69.8 °C, the “heat capacity change of unfolding” value was 1.36 kcal/mol/K and the “unfolding enthalpy (calorimetric)” value was 114 kcal/mol. For the same variant, the “unfolding enthalpy (van 't Hoff)” value was 123 kcal/mol.
